Substrate in assay [1]: CC protein origami tetrahedron variant TET12SN(22CC)
Put plainly: ITC; nanobody in the syringe titrated into the cell with TET12SN or a tetrahedron variant (2-5 µM), CC peptide dimer (5-10 µM) or a complex preformed by a first titration; MicroCal VP-ITC, 25 °C; 20 mM sodium phosphate pH 7.0, 150 mM NaCl; independent binding sites model (SEDPHAT), errors by Monte-Carlo. To be noted: for stoichiometry N: scale: nanobody per TET12SN(22CC). In general terms: ITC needs no label: the signal is the heat of the interaction.

Substrate in assay [2]: CC protein origami tetrahedron TET12SN
The assay is described as above.

Assay [3] addresses protein origami tetrahedron TET12SN. The assay can be described thus: ITC; nanobody titrated into the CC peptide dimer, the origami protein or a preformed nanobody-target complex; conditions in SI Appendix.
The target of assay [4] is preformed Nb28_(2)-TET12SN complex (llama). The assay is described as above.
Substrate in assay [5]: CC protein origami tetrahedron TET12SN
The assay can be described thus: ITC; titrations at 18, 25 and 32 °C fitted globally (independent binding sites, temperature-independent heat capacity); parameters reported at 25 °C; 20 mM sodium phosphate pH 7.0, 150 mM NaCl.

The target of assay [6] is preformed Nb28_2-TET12SN complex (llama). Put plainly: ITC; nanobody in the syringe titrated into the cell with TET12SN or a tetrahedron variant (2-5 µM), CC peptide dimer (5-10 µM) or a complex preformed by a first titration; MicroCal VP-ITC, 25 °C; 20 mM sodium phosphate pH 7.0, 150 mM NaCl; independent binding sites model (SEDPHAT), errors by Monte-Carlo.
For assay [7], the target named is preformed Nb28_2-TET12SN(22CC) complex (llama). The assay is described as above.
Assay [8] concerns the target preformed Nb30_2-TET12SN complex (llama). The assay can be described thus: ITC; titrations at 18, 25 and 32 °C fitted globally (independent binding sites, temperature-independent heat capacity); parameters reported at 25 °C; 20 mM sodium phosphate pH 7.0, 150 mM NaCl.
Assay [9] has as its target preformed Nb30_(2)-TET12SN complex (llama). Put plainly: ITC; nanobody titrated into the CC peptide dimer, the origami protein or a preformed nanobody-target complex; conditions in SI Appendix.
The target of assay [10] is preformed Nb30_2-TET12SN complex (llama). Put plainly: ITC; nanobody in the syringe titrated into the cell with TET12SN or a tetrahedron variant (2-5 µM), CC peptide dimer (5-10 µM) or a complex preformed by a first titration; MicroCal VP-ITC, 25 °C; 20 mM sodium phosphate pH 7.0, 150 mM NaCl; independent binding sites model (SEDPHAT), errors by Monte-Carlo.

B1: nanobody Nb30 (VHH)
VHH: QVQLQESGGGLVQPGGSLRLSCAASGSIFSDNDMGWYRQPPGKQREWVATITYDHVTWYADSVKGRFAISRDNAKNTVYLQMNDLKPEDTAVYYCNAVPGRRGSWGQGTQVTVSS
The Kd is the concentration at which binding is half-saturated. Usually stoichiometry N stands for the number of molecules, sites or subunits per partner or assembly. On to B1, for which the Kd in assay [1] amounted to 270 nM; in assay [3] it was 350 nM; in assay [4], 26 nM; in assay [5], 160 nM; in assay [7], 24 nM. For the same molecule, the stoichiometry N in assay [1] came out at 2. In addition, the stoichiometry N (nanobody per TET12SN (cell:syringe)) in assay [2] and in assay [5] was 2 throughout. Further, the stoichiometry N (nanobody per complex (cell:syringe)) in [6] and in assay [7] was 2 throughout.

B2: nanobody Nb26 (VHH)
VHH: QVQLQESGGGLVQAGDSLRLSCAASGRTFSTYPMGWFRQAPGKEREFVAASSSRAYYADSVKGRFTISRNNAKNTVYLQMNSLKPEDTAVYYCVADSSPYYRRYDAAQDYDYWGQGTQVTVSS
For the molecule B2, the stoichiometry N (nanobody per TET12SN (cell:syringe)) in [2] stood at 2. The molecule also displayed a Kd in assay [3] of 1.8 nM.

B3: nanobody Nb49 (VHH)
VHH: QVQLQESGGGLVQPGGSLRLSCIASGRTFNPYGMGWFRQVPGKERTFVSGITWIGGTTYYVNSVKGRFTISRDRAKNTVYLQMNSLKPEDTAVYYCAADKDNTGYNYWGQGTQVTVSS
With B3, the stoichiometry N (nanobody per TET12SN (cell:syringe)) in assay [2] amounted to 2. The Kd in [3] was found to be 160 nM.

B4: nanobody Nb39 (VHH)
VHH: QVQLQESGGGLVQAGGSLRLSCAASGSIFSINVMGWYRQAPGKQRELLASITSRGSTNYADSVKDRFTISRDNAKNTVYLQINSLKPEDTAVYYCNSRGWTTTRGDYDYWGQGTQVTVSS
As to B4, the stoichiometry N (nanobody per TET12SN (cell:syringe)) in assay [2] stood at 2. Besides, in assay [3], the KD, high-affinity site worked out at 27 nM and the KD, second binding site was found to be 2 µM.

B5: nanobody Nb28 (VHH)
VHH: QVQLQESGGGLVQPGGSLRLSCAAPGFRLDNYVIGWFRQAPGKEREGVSCISSSAGSTYYADSVKGRFTISRDNAKNTVYLQMNSLKPEDTAVYYCATACYSSYVTYWGQGTQVTVSS
With B5, the Kd amounted to 1.6 nM in assay [8]; 27 nM in assay [1]; 39 nM in assay [3]; 2 nM in assay [9]; 19 nM in assay [5]; 2.3 nM in [10]. In addition, the stoichiometry N (nanobody per complex (cell:syringe)) in [8] and in assay [10] was 2 each time. Moreover, the stoichiometry N in assay [1] came to 2. In addition, the stoichiometry N (nanobody per TET12SN (cell:syringe)) in assay [2] and in [5] was 2 each time.

B6: nanobody Nb34 (VHH)
VHH: QVQLQESGGGLVQPGGSLRLSCAASQFTFSSDWMYWVRQAPGKGLEWVSSISPGGAATAYAASVKGRFTISRDNAKNTLYLQMNSLKSEDTAVYYCSKTRAGTGRGQGTQVTVSS
As to B6, in assay [2], the stoichiometry N (nanobody per TET12SN (cell:syringe)) is 1. This molecule yielded an equilibrium dissociation constant (Kd) in assay [3] of 21000 nM.

The values above are taken from paper PMC8092592.
